Reference: PMC11825483

Assay: hepatic Ceacam1 mRNA and protein levels
Conditions: glycan changed form; control: Slc35c1 flox/flox mice

B1: CEACAM1 (Ceacam1): Slc35c1 cKO (protein)
parent chain: MELASAHLHKGQVPWGGLLLTASLLASWSPATTAEVTIEAVPPQVAEDNNVLLLVHNLPLALGAFAWYKGNTTAIDKEIARFVPNSNMNFTGQAYSGREIIYSNGSLLFQMITMKDMGVYTLDMTDENYRRTQATVRFHVHQPVTQPFLQVTNTTVKELDSVTLTCLSNDIGANIQWLFNSQSLQLTERMTLSQNNSILRIDPIKREDAGEYQCEISNPVSVRRSNSIKLDIIFDPTQGGLSDGAIAGIVIGVVAGVALIAGLAYFLYSRKSGGGSDQRDLTEHKPSTSNHNLAPSDNSPNKVDDVAYTVLNFNSQQPNRPTSAPSSPRATETVYSEVKKK
  expression_or_secretion: no change
